# Laboratory results taken from article PMC9482650, “Quantitative fragmentomics allow affinity mapping of interactomes” (Nature Communications, 2022).
# T1: GRIP1_3, Q9Y3R0
# T1 sequence (Q9Y3R0 247-346, limits assumed, looked up): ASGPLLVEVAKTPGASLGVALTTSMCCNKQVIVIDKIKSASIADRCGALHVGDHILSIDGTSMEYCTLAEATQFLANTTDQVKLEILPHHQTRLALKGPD
# T2: PDZD7_3, Q9H5P4
# T2 sequence (Q9H5P4 857-944, limits assumed, looked up): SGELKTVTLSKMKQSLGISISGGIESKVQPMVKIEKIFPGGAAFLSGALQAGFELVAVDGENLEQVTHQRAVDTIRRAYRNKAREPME
# T3: PDZD2_2, O15018
# T3 sequence (O15018 329-429, limits assumed, looked up): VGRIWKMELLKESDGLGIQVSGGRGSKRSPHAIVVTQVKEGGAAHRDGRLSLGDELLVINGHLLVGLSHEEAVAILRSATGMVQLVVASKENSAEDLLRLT
# T4: NHERF3_4, Q5T2W1
# T4 sequence (Q5T2W1 373-468, limits assumed, looked up): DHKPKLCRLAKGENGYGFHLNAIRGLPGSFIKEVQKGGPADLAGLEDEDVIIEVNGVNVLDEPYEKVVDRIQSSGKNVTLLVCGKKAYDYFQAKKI
# T5: GRIP1_4, Q9Y3R0
# T5 sequence (Q9Y3R0 467-571, limits assumed, looked up): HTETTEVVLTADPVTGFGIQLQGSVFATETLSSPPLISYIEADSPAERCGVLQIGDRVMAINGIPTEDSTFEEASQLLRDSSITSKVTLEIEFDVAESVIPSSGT
# T6: LIN7B, Q9HAP6
# T6 sequence (Q9HAP6 88-185, limits assumed, looked up): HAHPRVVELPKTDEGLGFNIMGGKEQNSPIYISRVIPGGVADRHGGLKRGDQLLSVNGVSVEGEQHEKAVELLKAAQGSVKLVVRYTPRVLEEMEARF
# T7: RADIL, Q96JH8
# T7 sequence (Q96JH8 971-1071, limits assumed, looked up): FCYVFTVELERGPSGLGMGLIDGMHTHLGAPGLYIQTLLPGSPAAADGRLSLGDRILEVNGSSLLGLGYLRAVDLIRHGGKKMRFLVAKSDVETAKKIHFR
# T8: MPP6, Q9NZW5
# T8 sequence (Q9NZW5 125-219, limits assumed, looked up): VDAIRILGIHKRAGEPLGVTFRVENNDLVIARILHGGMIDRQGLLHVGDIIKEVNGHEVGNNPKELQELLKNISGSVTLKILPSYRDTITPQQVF
# T9: MPP7, Q5T2T1
# T9 sequence (Q5T2T1 134-230, limits assumed, looked up): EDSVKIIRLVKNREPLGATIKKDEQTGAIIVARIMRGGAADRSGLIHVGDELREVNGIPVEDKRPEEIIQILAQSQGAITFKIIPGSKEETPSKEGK
# T10: PCLO, Q9Y6V0
# T10 sequence (Q9Y6V0 4491-4600, limits assumed, looked up): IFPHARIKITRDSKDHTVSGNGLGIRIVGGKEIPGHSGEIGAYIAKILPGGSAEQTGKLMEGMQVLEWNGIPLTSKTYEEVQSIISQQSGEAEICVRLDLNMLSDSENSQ
# T11: APBA1_2, Q02410
# T11 sequence (Q02410 742-832, limits assumed, looked up): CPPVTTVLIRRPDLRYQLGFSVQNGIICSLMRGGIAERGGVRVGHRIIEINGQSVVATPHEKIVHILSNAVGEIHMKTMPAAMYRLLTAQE
# Columns and labels:
# Test in all cases: holdup assay
# Design in all cases: key: below the threshold = too weak to quantify, mostly under pKd 3.1 to 4
# Conditions in all cases: plain residues with an end cap or a label only (N-terminal biotin on a linker: gsgsgs; C-terminal amide)
# DLG4_3, P78352 = target: DLG4_3, P78352
# Inadl_2, Q8NI35 = target: Inadl_2, Q8NI35
# LNX1_1, Q8TBB1 = target: LNX1_1, Q8TBB1
# GRIP1_3, Q9Y3R0 = target: T1, GRIP1_3, Q9Y3R0
# FRMPD2_3, Q68DX3 = target: FRMPD2_3, Q68DX3
# PDZD7_3, Q9H5P4 = target: T2, PDZD7_3, Q9H5P4
# LNX1_3, Q8TBB1 = target: LNX1_3, Q8TBB1
# FRMPD2_2, Q68DX3 = target: FRMPD2_2, Q68DX3
# GORASP1, Q9BQQ3 = target: GORASP1, Q9BQQ3
# LAP2, Q96RT1 = target: LAP2, Q96RT1
# PDZD2_2, O15018 = target: T3, PDZD2_2, O15018
# NHERF3_4, Q5T2W1 = target: T4, NHERF3_4, Q5T2W1
# DLG1_1, Q12959 = target: DLG1_1, Q12959
# GRIP1_4, Q9Y3R0 = target: T5, GRIP1_4, Q9Y3R0
# LIN7B, Q9HAP6 = target: T6, LIN7B, Q9HAP6
# GRIP2_6, Q9C0E4 = target: GRIP2_6, Q9C0E4
# FRMPD2_1, Q68DX3 = target: FRMPD2_1, Q68DX3
# CASK, O14936 = target: CASK, O14936
# RADIL, Q96JH8 = target: T7, RADIL, Q96JH8
# MAGI2_4, Q86UL8 = target: MAGI2_4, Q86UL8
# MPP6, Q9NZW5 = target: T8, MPP6, Q9NZW5
# MPP7, Q5T2T1 = target: T9, MPP7, Q5T2T1
# MAGI1_2, Q96QZ7 = target: MAGI1_2, Q96QZ7
# GRIP2_7, Q9C0E4 = target: GRIP2_7, Q9C0E4
# GIPC2, Q8TF65 = target: GIPC2, Q8TF65
# PCLO, Q9Y6V0 = target: T10, PCLO, Q9Y6V0
# APBA1_2, Q02410 = target: T11, APBA1_2, Q02410
# FRMPD2_3, Q68DX3, sequence (Q68DX3 1073-1166): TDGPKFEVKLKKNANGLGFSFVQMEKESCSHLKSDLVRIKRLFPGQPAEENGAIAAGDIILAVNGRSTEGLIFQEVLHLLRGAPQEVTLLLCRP
# FRMPD2_1, Q68DX3, sequence (Q68DX3 770-861): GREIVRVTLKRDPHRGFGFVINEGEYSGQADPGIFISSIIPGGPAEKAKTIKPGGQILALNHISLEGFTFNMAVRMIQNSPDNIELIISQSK
# GRIP2_7, Q9C0E4, sequence (Q9C0E4 934-1023): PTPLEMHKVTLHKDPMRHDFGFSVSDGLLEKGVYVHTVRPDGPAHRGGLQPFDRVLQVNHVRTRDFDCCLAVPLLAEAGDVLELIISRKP
# FRMPD2_2, Q68DX3, sequence (Q68DX3 944-1038): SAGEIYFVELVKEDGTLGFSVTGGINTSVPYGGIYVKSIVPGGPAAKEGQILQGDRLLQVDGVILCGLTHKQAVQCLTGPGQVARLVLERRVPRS
# DLG4_3, P78352, sequence (P78352 306-403): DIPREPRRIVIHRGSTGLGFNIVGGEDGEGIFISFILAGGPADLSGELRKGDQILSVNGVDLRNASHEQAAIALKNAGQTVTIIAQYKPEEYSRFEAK
# MAGI2_4, Q86UL8, sequence (Q86UL8 772-865): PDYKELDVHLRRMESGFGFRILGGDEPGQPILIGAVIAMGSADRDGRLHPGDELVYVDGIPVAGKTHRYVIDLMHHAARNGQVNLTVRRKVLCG
# LAP2, Q96RT1, sequence (Q96RT1 other isoform, or with tags, fused parts or gaps): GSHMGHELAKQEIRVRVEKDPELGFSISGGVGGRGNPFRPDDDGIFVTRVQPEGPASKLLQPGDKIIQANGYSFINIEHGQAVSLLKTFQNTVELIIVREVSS
# LNX1_3, Q8TBB1, sequence (Q8TBB1 500-596): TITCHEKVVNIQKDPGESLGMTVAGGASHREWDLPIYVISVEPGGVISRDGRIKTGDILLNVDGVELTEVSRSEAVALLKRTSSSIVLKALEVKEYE
# GORASP1, Q9BQQ3, sequence (Q9BQQ3 1-208): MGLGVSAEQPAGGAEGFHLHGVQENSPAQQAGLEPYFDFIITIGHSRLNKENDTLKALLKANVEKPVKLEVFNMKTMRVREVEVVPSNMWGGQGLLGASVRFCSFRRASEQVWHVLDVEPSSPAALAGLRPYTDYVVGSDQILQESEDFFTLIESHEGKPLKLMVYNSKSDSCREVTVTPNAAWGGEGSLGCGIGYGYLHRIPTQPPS
# GRIP2_6, Q9C0E4, sequence (Q9C0E4 648-740): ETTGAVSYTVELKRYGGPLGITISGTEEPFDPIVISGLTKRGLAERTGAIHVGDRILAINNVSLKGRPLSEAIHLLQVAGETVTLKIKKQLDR
# Inadl_2, Q8NI35, sequence (Q8NI35 238-335): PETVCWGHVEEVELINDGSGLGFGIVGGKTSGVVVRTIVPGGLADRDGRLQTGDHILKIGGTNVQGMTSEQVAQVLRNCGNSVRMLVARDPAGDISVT
# CASK, O14936, sequence (O14936 487-570): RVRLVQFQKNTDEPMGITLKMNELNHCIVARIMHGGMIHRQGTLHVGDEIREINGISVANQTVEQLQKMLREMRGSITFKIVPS
# MAGI1_2, Q96QZ7, sequence (Q96QZ7 456-580): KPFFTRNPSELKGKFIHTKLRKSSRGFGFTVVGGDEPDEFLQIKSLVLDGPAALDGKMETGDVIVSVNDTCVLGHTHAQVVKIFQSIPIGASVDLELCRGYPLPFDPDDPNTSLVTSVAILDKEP
# LNX1_1, Q8TBB1, sequence (Q8TBB1 261-371): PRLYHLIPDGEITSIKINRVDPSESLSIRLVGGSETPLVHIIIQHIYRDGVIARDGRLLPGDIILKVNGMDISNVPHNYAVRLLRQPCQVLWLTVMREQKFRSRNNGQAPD
# GIPC2, Q8TF65, sequence (Q8TF65 112-203): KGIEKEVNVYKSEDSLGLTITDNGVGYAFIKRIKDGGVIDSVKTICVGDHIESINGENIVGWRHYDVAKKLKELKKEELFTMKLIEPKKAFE
binder,measurement,setting,value
"VSVDDVRSTSQGLSSY [DFNB31_int, Q9P202]",pKd,"DLG4_3, P78352",below the threshold
same,pKd,"Inadl_2, Q8NI35",below the threshold
same,pKd,"LNX1_1, Q8TBB1",below the threshold
same,pKd,"GRIP1_3, Q9Y3R0",below the threshold
same,pKd,"FRMPD2_3, Q68DX3",below the threshold
same,pKd,"PDZD7_3, Q9H5P4",3.8
same,pKd,"LNX1_3, Q8TBB1",below the threshold
same,pKd,"FRMPD2_2, Q68DX3",below the threshold
same,pKd,"GORASP1, Q9BQQ3",below the threshold
same,pKd,"LAP2, Q96RT1",3.7
same,pKd,"PDZD2_2, O15018",below the threshold
same,pKd,"NHERF3_4, Q5T2W1",below the threshold
same,pKd,"DLG1_1, Q12959",below the threshold
same,pKd,"GRIP1_4, Q9Y3R0",below the threshold
same,pKd,"LIN7B, Q9HAP6",3.48
same,pKd,"GRIP2_6, Q9C0E4",below the threshold
same,pKd,"FRMPD2_1, Q68DX3",below the threshold
same,pKd,"CASK, O14936",below the threshold
same,pKd,"RADIL, Q96JH8",below the threshold
same,pKd,"MAGI2_4, Q86UL8",below the threshold
same,pKd,"MPP6, Q9NZW5",3.65
same,pKd,"MPP7, Q5T2T1",below the threshold
same,pKd,"MAGI1_2, Q96QZ7",below the threshold
same,pKd,"GRIP2_7, Q9C0E4",below the threshold
same,pKd,"GIPC2, Q8TF65",below the threshold
same,pKd,"PCLO, Q9Y6V0",below the threshold
same,pKd,"APBA1_2, Q02410",below the threshold
